Data: article PMC8473191

Tests used:
[1] = target: mMH1_02TE, H1 hemagglutinin ectodomain (A/Hawaii/70/2019) with cleavable foldon and histidine tag (influenza A virus A/Hawaii/70/2019 (H1) | not stated); experiment: SEC-MALS
[2] = target: mMH3_02TE, H3 hemagglutinin ectodomain (A/Hong Kong/45/2019) with cleavable foldon and histidine tag (influenza A virus A/Hong Kong/45/2019 (H3) | not stated); experiment: SEC-MALS

Substance | stoichiometry N [1] | stoichiometry N [2]
mMH1_02TE, H1 hemagglutinin ectodomain (A/Hawaii/70/2019) with cleavable foldon and histidine tag (domain or fragment) | 3 | 
mMH3_02TE, H3 hemagglutinin ectodomain (A/Hong Kong/45/2019) with cleavable foldon and histidine tag (domain or fragment) |  | 3
